{"source": "patent US8541200B2", "about": "“Cleavage of fusion proteins using Granzyme B protease” (Hoffmann-La Roche Inc., priority 2003, dated 2013)", "molecules": {"B1": {"name": "H6-IEPD-RAP: hexa-His RAP fusion protein with Granzyme B recognition site IEPD, SEQ ID NO. 23 (protein)", "chain": "MGSHHHHHHGSIEPDYSREKNQPKPSPKRESGEEFRMEKLNQLWEKAQRLHLPPVRLAELHADLKIQERDELAWKKLKLDGLDEDGEKEARLIRNLNVILAKYGLDGKKDARQVTSNSLSGTQEDGLDDPRLEKLWHKAKTSGKFSGEELDKLWREFLHHKEKVHEYNVLLETLSRTEEIHENVISPSDLSDIKGSVLHSRHTELKEKLRSINQGLDRLRRVSHQGYSTEAEFEEPRVIDLWDLAQSANLTDKELEAFREELKHFEAKIEKHNHYQKQLEIAHEKLRHAESVGDGERVSRSREKHALLEGRTKELGYTVKKHLQDLSGRISRARHNEL", "modifications": "H6-IEPD-RAP"}, "B2": {"name": "H6-IEPD-TN123: hexa-His Tetranectin (TN123) fusion protein with Granzyme B recognition site IEPD, SEQ ID NO. 25 (protein)", "chain": "MGSHHHHHHGSIEPDGEPPTQKPKKIVNAKKDVVNTKMFEELKSRLDTLAQEVALLKEQQALQTVCLKGTKVHMKCFLAFTQTKTFHEASEDCISRGGTLSTPQTGSENDALYEYLRQSVGNEAEIWLGLNDMAAEGTWVDMTGARIAYKNWETEITAQPDGGKTENCAVLSGAANGKWFDKRCRDQLPYICQFGIV", "modifications": "H6-IEPD-TN123"}, "B3": {"name": "IEPD-GrB-H6: self-activating human pro-Granzyme B with IEPD recognition site and C-terminal H6, SEQ ID NO:2 (protein)", "chain": "MGSIEPDIIGGHEAKPHSRPYMAYLMIWDQKSLKRCGGFLIQDDFVLTAAHCWGSSINVTLGAHNIKEQEPTQQFIPVKRPIPHPAYNPKNFSNDIMLLQLERKAKRTRAVQPLRLPSNKAQVKPGQTCSVAGWGQTAPLGKHSHTLQEVKMTVQEDRKCESDLRHYYDSTIELCVGDPEIKKTSFKGDSGGPLVCNKVAQGIVSYGRNNGMPPRACTKVSSFVHWIKKTMKRYLNSHHHHHH", "modifications": "C-terminal His6 tag; pro-IEPD-GrB-H6"}, "B4": {"name": "IEAD-GrB-H6: self-activating human pro-Granzyme B with IEAD recognition site and C-terminal H6, SEQ ID NO:3 (protein)", "chain": "B3 chain with P6A", "modifications": "pro-IEAD-GrB-H6"}}, "key": {"[1]": {"target": "FXa (Bos taurus, UniProt P00743)", "sequence (P00743 234-492 limits assumed)": "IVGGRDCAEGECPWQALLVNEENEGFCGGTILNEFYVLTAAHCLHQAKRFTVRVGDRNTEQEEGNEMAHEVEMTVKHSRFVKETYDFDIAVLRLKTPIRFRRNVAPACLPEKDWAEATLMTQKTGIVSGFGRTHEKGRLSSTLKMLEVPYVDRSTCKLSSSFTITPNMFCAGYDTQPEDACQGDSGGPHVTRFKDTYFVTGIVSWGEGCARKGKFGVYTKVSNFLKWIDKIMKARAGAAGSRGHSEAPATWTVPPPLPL", "sequence (P00743 41-180 partner limits assumed)": "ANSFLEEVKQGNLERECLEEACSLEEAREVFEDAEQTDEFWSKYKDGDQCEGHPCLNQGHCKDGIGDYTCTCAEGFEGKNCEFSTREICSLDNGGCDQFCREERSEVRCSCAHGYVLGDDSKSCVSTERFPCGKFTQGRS", "experiment": "Cleavage of fusion proteins by FXa, SDS PAGE", "assay_type": "biochemical, bovine", "conditions": "protease:fusion protein 1:1000, 23° C.", "protocol": "(§1) Both H6-IEPD-RAP (SEQ ID NO: 23) and H6-IEGR-RAP were in 100 mM HEPES pH 7.4 and the following incubations were set up at room temperature, 23° C., with the protease:fusion protein ratio 1:1000: • 1. […] 400 μl (app. 400 μg) H6-GrB-RAP+2 μl GrB-H6 (app. 0.4 μg)\n250 μl (app. 400 μg) H6Ubi-IEPD-ApoA1+0.4 μg GrB-H6 C228F • 2."}, "[2]": {"experiment": "Colorimetric Granzyme B activity assay with Ac-IEPD-pNA (absorbance at 405 nm)", "assay_type": "biochemical", "conditions": "for Granzyme B activity ΔOD405/min: pro-IEGR-GrB-H6 incubated with FXa at 4° C.; for completion of self-activation: 4° C., without addition of previously activated Granzyme B; for ΔOD405/min (self-activation): 100 mM HEPES pH 7.5", "protocol": "GrB-H6 activity was measured using the following mix: 500 μl buffer, 2 μl 100 mM Ac-IEPD-pNA, and 5 μl GrB-H6.\nRecombinant self-activating human Granzyme B derivatives IEPD-GrB-H6 and IEAD-GrB-H6 were produced as described in Example 2 by using the expression vectors pT7-IEPD-GrB-H6 and pT7-IEAD-GrB-H6 described in Example 1. The IEAD-GrB-H6 and IEPD-GrB-H6 proteins were eluted from the SP Sepharose columns and stored at 4° C. for 2 days before the activity of the respective top fractions were determined by using a colorimetric assay. For this purpose the following was mixed: 500 μl buffer (100 mM HEPES pH 7.5), 2 μl 100 mM Ac-IEPD-pNA, and 5 μl protein solution. The change in absorption was then determined at 405 nm during 3 min. The activity was further determined after additional incubation for 1 and 2 days at 4° C.\nThe activity of the activated and purified GrB-H6 was measured in different buffers using the Ac-IEPD-pNA substrate: 500 μl buffer, 2 μl 100 mM Ac-IEPD-pNA, and 5 μl GrB-H6. The ΔOD405/min was calculated from the first 0.75 min unless otherwise noted."}, "[3]": {"target": "T1, GrB-H6 (Homo sapiens, UniProt P10144, R55Q)", "T1 construct": "MGSIEGR (N, cleaved yes); made in house; host or cells: E. coli BL21", "experiment": "Cleavage of fusion proteins by GrB-H6, SDS PAGE", "assay_type": "biochemical", "conditions": "for fusion protein cleaved at IEPD↓ and internal AQPD↓ site: 10 μl GrB-H6, no Ca^2+", "protocol": "(§2) The fusion protein H6-TripUB IEPD↓SP (SEQ ID NO: 22) (prepared as described in Example 7) eluted from the Ni^2+-NTA-agarose column was gel filtrated into 100 mM HEPES pH 7.5 and 200 μl samples of the top-fraction was incubated at room temperature with either 0, 1 or 10 μl of activated GrB-H6 (approximately 0, 0.2 and 2 μg GrB-H6).\nWith the H6-TripUB IEPD↓SP (SEQ ID NO: 22) fusion protein the following nine incubations (Table 9) were set up using 200 μl H6-TripUB IEPD↓SP (SEQ ID NO: 22) and 5 μl GrB-H6 (approximately 1 μg GrB-H6) for each incubation.\nas §2, with “H6-IEPD-RAP” for “H6-TripUB IEPD↓SP”, “23)” for “22)”, “7.4” for “7.5”, “GrB-H6). Samples for SDS PAGE were taken after 5, 23 and 26 hours of incubation, see FIG. 10.” for “GrB-H6).”\nas §1\nThe fusion protein H6-IEPD-TN123 (SEQ ID NO: 25) (prepared as described in Example 7) eluted from the Q Sepharose was after final purification gel filtrated into 100 mM HEPES pH 7.5, and 200 μl samples of the top-fraction was incubated at room temperature with either 0, 1 or 10 μl of activated GrB-H6 (approximately 0, 0.2 and 2 μg GrB-H6) both with and without 5 mM CaCl2 present. Samples for SDS PAGE from the incubations without CaCl2 were taken after 12, 19 and 24 hours as well as 5 days of incubation. Samples for SDS PAGE from the incubations both with and without CaCl2 were taken after approximately 20 and 48 hours of incubation, see FIG. 14.\nEach of the fusion proteins eluted from the Ni^2+-NTA-agarose column were gel filtrated into 100 mM HEPES pH 7.4 and fractions of approximately the same concentration of the five different H6-TripUB variants were used. The five variants were H6-TripUB IEPD↓SP (SEQ ID NO: 22), H6-TripUB IQAD↓SP (SEQ ID NO: 26), H6-TripUB IQAD↓SG (SEQ ID NO: 27), H6-TripUB VGPD↓SP (SEQ ID NO: 28) and H6-TripUB VGPD↓FG (SEQ ID NO: 29). Of each fusion protein 200 μl was incubated at room temperature, 23° C., with 5 μl of activated GrB-H6 (approximately 1 μg GrB-H6). The protease:fusion protein ratio was thereby 1:500."}}, "note": "Residue numbers refer to the chain shown, from its start. “Also recorded” adds a separate entry of the source.", "data": [{"molecule": "H6-IEGR-RAP: FXa cleavable hexa-His RAP fusion protein with recognition sequence IEGR", "values": [{"measurement": "correctly cleaved product left", "setting": "[1]; 27 hours", "result": "no correctly cleaved product left"}, {"measurement": "fusion protein correctly cleaved", "setting": "[1]; ½ hour", "result": "almost all of the fusion protein has been cleaved"}]}, {"molecule": "pro-IEGR-GrB-H6: pro-Granzyme B fusion protein with FXa recognition sequence IEGR and C-terminal hexa-His tag, SEQ ID NO:1", "values": [{"measurement": "Granzyme B activity ΔOD405/min", "setting": "[2]; 0 hours", "result": "0.0073 ΔOD405/min"}, {"measurement": "Granzyme B activity ΔOD405/min", "setting": "[2]; 2 hours", "result": "0.0200 ΔOD405/min"}, {"measurement": "Granzyme B activity ΔOD405/min", "setting": "[2]; 5 hours", "result": "0.0250 ΔOD405/min"}, {"measurement": "Granzyme B activity ΔOD405/min", "setting": "[2]; 19 hours", "result": "0.0829 ΔOD405/min"}, {"measurement": "Granzyme B activity ΔOD405/min", "setting": "[2]; 2 days (45 hours)", "result": "0.1325 ΔOD405/min"}, {"measurement": "Granzyme B activity ΔOD405/min", "setting": "[2]; 5 days (120 hours)", "result": "0.1832 ΔOD405/min"}]}, {"molecule": "B1", "values": [{"measurement": "GrB-sensitive sites in RAP", "setting": "[3]; 19 possible sites (19 Asp residues)", "result": "only one GrB-sensitive site"}, {"measurement": "fusion protein cleaved", "setting": "[3]; 200 μl fusion protein + 1 or 10 μl GrB-H6, room temperature, 5 hours", "result": "all the H6-IEPD-RAP (SEQ ID NO: 23) has been cleaved to give the final product; also recorded: all the H6-IEPD-RAP (SEQ ID NO: 23) was cleaved to give the final product"}, {"measurement": "fusion protein correctly cleaved", "setting": "[3]; protease:fusion protein 1:1000, 23° C., ½ hour", "result": "nearly all the H6-IEPD-RAP (SEQ ID NO: 23) has been cleaved correctly"}]}, {"molecule": "B2", "values": [{"measurement": "internal cleavage at AQPD↓ site", "setting": "[3]; 5 mM Ca^2+ added", "result": "no internal cleavage is observed"}, {"measurement": "fusion protein cleaved at IEPD↓ and internal AQPD↓ site", "setting": "[3]; 2 days", "result": "almost all the fusion protein has been cleaved twice"}, {"measurement": "fusion protein cleaved at IEPD↓ and internal AQPD↓ site", "setting": "[3]; 5 days", "result": "almost all of the fusion protein has been cleaved twice"}, {"measurement": "fusion protein correctly cleaved", "setting": "[3]; 200 μl fusion protein + 10 μl GrB-H6, 5 mM Ca^2+, 12 hours", "result": "approximately 40%"}, {"measurement": "sites cleaved", "setting": "[3]; no Ca^2+ present", "result": "cleaved correctly at the IEPD sequence, but also just as rapidly at an internal site of the sequence AQPD"}]}, {"molecule": "B3", "values": [{"measurement": "completion of self-activation", "setting": "[2]", "result": "not completed until after a least three or four days"}, {"measurement": "ΔOD405/min (self-activation)", "setting": "[2]; stored at 4° C. 2 days", "result": "0.1284 ΔOD405/min"}, {"measurement": "ΔOD405/min (self-activation)", "setting": "[2]; stored at 4° C. 3 days", "result": "0.1375 ΔOD405/min"}, {"measurement": "ΔOD405/min (self-activation)", "setting": "[2]; stored at 4° C. 4 days", "result": "0.1351 ΔOD405/min"}]}, {"molecule": "B4", "values": [{"measurement": "completion of self-activation", "setting": "[2]", "result": "not completed until after a least three or four days"}, {"measurement": "ΔOD405/min (self-activation)", "setting": "[2]; stored at 4° C. 2 days", "result": "0.1372 ΔOD405/min"}, {"measurement": "ΔOD405/min (self-activation)", "setting": "[2]; stored at 4° C. 3 days", "result": "0.1607 ΔOD405/min"}, {"measurement": "ΔOD405/min (self-activation)", "setting": "[2]; stored at 4° C. 4 days", "result": "0.1983 ΔOD405/min"}]}]}
